From article PMC4081063, “The conformational state of the nucleosome entry–exit site modulates TATA box-specific TBP binding”

Tests used:
[1] = target: T1, TBP (human TATA binding protein) (Homo sapiens, UniProt P20226 1-339); assay: bulk FRET; similar to TATA-14E; stoichiometry 1.1 TBP:DNA; 20 mM Tris pH 7.9, 4 mM MgCl2, 1 mM DTT, 5% glycerol, 5-150 mM KCl as indicated, 1 nM labeled DNA (1-5 nM in Results), 20 min; 25 C (37 C tested); settings: protein: recombinant; label: 5' ends labeled with donor and acceptor; blunt
T1 sequence (P20226 whole entry): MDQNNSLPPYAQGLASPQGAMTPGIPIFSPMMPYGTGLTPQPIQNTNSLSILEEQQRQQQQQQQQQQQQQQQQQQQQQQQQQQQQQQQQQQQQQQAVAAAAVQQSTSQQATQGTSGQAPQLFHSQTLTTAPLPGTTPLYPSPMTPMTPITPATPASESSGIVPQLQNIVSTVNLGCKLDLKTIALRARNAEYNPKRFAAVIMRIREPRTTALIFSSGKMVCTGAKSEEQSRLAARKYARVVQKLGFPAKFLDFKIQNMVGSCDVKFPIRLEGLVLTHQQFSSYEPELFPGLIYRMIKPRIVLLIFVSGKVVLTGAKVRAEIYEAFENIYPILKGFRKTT

[2] = target: T1, TBP (human TATA binding protein); assay: bulk FRET; 150 mM KCl, 4 mM Mg2+; 20 mM Tris pH 7.9, 4 mM MgCl2, 1 mM DTT, 5% glycerol, 5-150 mM KCl as indicated, 1 nM labeled DNA (1-5 nM in Results), 20 min; 25 C (37 C tested); settings: protein: recombinant, blunt
[3] = target: T1, TBP (human TATA binding protein); assay: bulk FRET; 5-150 mM KCl; biphasic at low salt; similar at 25 and 37 C; 20 mM Tris pH 7.9, 4 mM MgCl2, 1 mM DTT, 5% glycerol, 5-150 mM KCl as indicated, 1 nM labeled DNA (1-5 nM in Results), 20 min; 25 C (37 C tested); settings: protein: recombinant; label: 5' donor and internal amino-dT acceptor 18 bp away, same strand; blunt
[4] = target: T1, TBP (human TATA binding protein); assay: bulk FRET; 50 mM KCl, 4 mM Mg2+; 20 mM Tris pH 7.9, 4 mM MgCl2, 1 mM DTT, 5% glycerol, 5-150 mM KCl as indicated, 1 nM labeled DNA (1-5 nM in Results), 20 min; 25 C (37 C tested); settings: protein: recombinant; label: 5' ends labeled with donor (Atto-488) and acceptor (Atto-633 or Atto-647N); blunt

B1: TATA-14E* (dsDNA)
DNA 1: GGGTATAAAAGGGG
DNA 2: CCCCTTTTATACCC
B1: binds [1].

B2: TATA-14I (dsDNA)
DNA 1: TGGTATAAAAGGGTGCGGACACGTG
DNA 2: CACGTGTCCGCACCCTTTTATACCA
Work on B2 yielded a Kd ([2]; label: 5' donor and internal amino-dT acceptor 14 bp away, same strand) of 6 ± 1 nM.

B3: TATA-18I (dsDNA)
DNA 1: TGGGGTATAAAAGGGGGTGGACACGTG
DNA 2: CACGTGTCCACCCCCTTTTATACCCCA
B3: binds [3].

B4: TATA-14E (dsDNA)
DNA 1: GGCTATAAAAGGGG
DNA 2: CCCCTTTTATAGCC
B4 gave a Kd [4] of 5 ± 1 nM and a Kd ([2]; label: 5' ends labeled with donor (Atto-488) and acceptor (Atto-633 or Atto-647N)) of 10 ± 3 nM.
